# Measured values from patent US20140212436A1.
# What was measured:
# [1] = biological target: FcγRIIaR (human) (UniProt P12318); assay: Biacore
# [2] = biological target: recombinant human FcγRIIb protein (human) (UniProt P31994); assay: Biacore
# recombinant human FcγRIIb protein (human), sequence (P31994 46-217 limits assumed): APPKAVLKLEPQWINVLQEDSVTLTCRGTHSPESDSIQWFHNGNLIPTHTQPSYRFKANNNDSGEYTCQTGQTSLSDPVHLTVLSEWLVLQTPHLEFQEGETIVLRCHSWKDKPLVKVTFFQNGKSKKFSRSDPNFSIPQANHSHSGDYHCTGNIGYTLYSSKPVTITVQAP
# FcγRIIaR (human), sequence (P12318 34-217 H167R limits assumed): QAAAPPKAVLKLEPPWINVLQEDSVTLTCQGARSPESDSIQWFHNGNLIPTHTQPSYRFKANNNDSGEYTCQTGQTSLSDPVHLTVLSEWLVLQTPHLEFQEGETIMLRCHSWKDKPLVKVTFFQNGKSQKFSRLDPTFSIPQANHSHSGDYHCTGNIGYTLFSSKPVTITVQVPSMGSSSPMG
substance,measurement,setting,value
L234D/G236N/S267E (antibody),Fold,[1],0.728
same,Kd,[1],1180 nM
same,Fold,[2],5.11
same,Kd,[2],287 nM
S239D/H268D/L328Y (antibody),Fold,[2],24.4
same,Kd,[2],60.1 nM
G237P (antibody),Fold,[1],0.00859
same,Kd,[1],100000 nM
same,Fold,[2],0.0147
same,Kd,[2],100000 nM
S267A/L328Y/I332E (antibody),Fold,[2],13.5
same,Kd,[2],109 nM
G236D/H268D (antibody),Fold,[2],11.6
same,Kd,[2],126 nM
G237Y (antibody),Fold,[1],0.902
same,Kd,[1],952 nM
same,Fold,[2],0.33
same,Kd,[2],4450 nM
S239D/H268D/L328W (antibody),Fold,[2],51.1
same,Kd,[2],28.7 nM
L235Y/S267D (antibody),Fold,[2],15.9
same,Kd,[2],92.2 nM
S267E/L328I (antibody),Fold,[1],74
same,Kd,[1],11.6 nM
same,Fold,[2],53.4
same,Kd,[2],27.5 nM
L234G (antibody),Fold,[1],0.0859
same,Kd,[1],10000 nM
same,Fold,[2],0.147
same,Kd,[2],10000 nM
G236Q (antibody),Fold,[1],0.0859
same,Kd,[1],10000 nM
same,Fold,[2],0.147
same,Kd,[2],10000 nM
G236K (antibody),Fold,[1],0.00859
same,Kd,[1],100000 nM
same,Fold,[2],0.0147
same,Kd,[2],100000 nM
S239D/H268D/L328W/I332E (antibody),Fold,[2],27.8
same,Kd,[2],52.7 nM
S239D/L328Y (antibody),Fold,[2],5.56
same,Kd,[2],264 nM
L234I (antibody),Fold,[1],0.0554
same,Kd,[1],15500 nM
same,Fold,[2],0.108
same,Kd,[2],13600 nM
S239D/H268E/L328Y (antibody),Fold,[2],21.7
same,Kd,[2],67.7 nM
G237E (antibody),Fold,[1],0.00859
same,Kd,[1],100000 nM
same,Fold,[2],0.0147
same,Kd,[2],100000 nM
H268D/L328Y (antibody),Fold,[2],1.91
same,Kd,[2],767 nM
L235S/S267E (antibody),Kd,[2],37800 nM
L234W/S239E/S267E (antibody),Fold,[1],98.5
same,Kd,[1],8.72 nM
same,Fold,[2],42.3
same,Kd,[2],34.7 nM
H268Q (antibody),Fold,[1],1.58
same,Kd,[1],544 nM
L235F/S239D/L328Y (antibody),Fold,[2],6.82
same,Kd,[2],215 nM
S239D/A327D/L328Y (antibody),Fold,[2],11.9
same,Kd,[2],123 nM
L235E (antibody),Fold,[1],0.333
same,Kd,[1],2580 nM
same,Fold,[2],0.55
same,Kd,[2],2670 nM
H268D/A327D (antibody),Fold,[2],7.68
same,Kd,[2],191 nM
S239D/S267D (antibody),Fold,[2],22.3
same,Kd,[2],65.9 nM
L235Q (antibody),Fold,[1],2.04
same,Kd,[1],420 nM
L235P (antibody),Fold,[1],0.122
same,Kd,[1],7010 nM
same,Fold,[2],0.00585
same,Kd,[2],251000 nM
K326D/L328Y/I332E (antibody),Fold,[2],2.65
same,Kd,[2],553 nM
A330S (antibody),Fold,[2],0.0635
same,Kd,[2],23100 nM
H268D/A327D/L328Y (antibody),Fold,[2],3.49
same,Kd,[2],420 nM
S267D/H268E (antibody),Fold,[2],17.8
same,Kd,[2],82.6 nM
V266D (antibody),Fold,[1],0.704
same,Kd,[1],1220 nM
same,Fold,[2],0.147
same,Kd,[2],10000 nM
S267D/H268D (antibody),Fold,[2],14.2
same,Kd,[2],103 nM
L235R (antibody),Fold,[1],1.02
same,Kd,[1],838 nM
same,Fold,[2],5.58
same,Kd,[2],263 nM
G237V (antibody),Fold,[1],0.0342
same,Kd,[1],25100 nM
same,Fold,[2],0.147
same,Kd,[2],10000 nM
L235N (antibody),Fold,[1],0.0356
same,Kd,[1],24100 nM
same,Fold,[2],0.147
same,Kd,[2],10000 nM
S239D/K326D/L328Y (antibody),Fold,[2],13
same,Kd,[2],113 nM
S267D/A327D (antibody),Fold,[2],6.89
same,Kd,[2],213 nM
L234Y (antibody),Fold,[1],0.0511
same,Kd,[1],16800 nM
same,Fold,[2],0.0237
same,Kd,[2],61900 nM
G237Q (antibody),Fold,[1],0.0859
same,Kd,[1],10000 nM
same,Fold,[2],0.147
same,Kd,[2],10000 nM
S298D (antibody),Fold,[1],1.45
same,Kd,[1],592 nM
same,Fold,[2],0.797
same,Kd,[2],1840 nM
K326W (antibody),Fold,[2],3.04
same,Kd,[2],483 nM
H268D/K326D/L328Y (antibody),Fold,[2],18.6
same,Kd,[2],78.9 nM
S239D/S267A/L328Y (antibody),Fold,[2],19.8
same,Kd,[2],74.1 nM
S239D/L328F/I332E (antibody),Fold,[2],8.34
same,Kd,[2],176 nM
L235T/S267E (antibody),Fold,[1],3.06
same,Kd,[1],281 nM
same,Fold,[2],2.37
same,Kd,[2],619 nM
G236A/G237A (antibody),Fold,[2],0.0578
same,Kd,[2],25400 nM
S267A/H268D/L328Y (antibody),Fold,[2],10.7
same,Kd,[2],137 nM
L234W/G236D/S239E/S267E (antibody),Fold,[1],5.69
same,Kd,[1],151 nM
same,Fold,[2],11.4
same,Kd,[2],129 nM
A327D/L328Y/I332E (antibody),Fold,[2],2.31
same,Kd,[2],636 nM
S267E/L328Q (antibody),Fold,[2],12.1
same,Kd,[2],121 nM
S239D/L328Y/I332E (antibody),Fold,[2],7.41
same,Kd,[2],198 nM
S239D/H268D/L328F (antibody),Fold,[2],8.79
same,Kd,[2],167 nM
L234W/H268D/L328Y (antibody),Fold,[2],5.92
same,Kd,[2],248 nM
S267D/A327E (antibody),Fold,[2],12.1
same,Kd,[2],121 nM
A330K (antibody),Fold,[2],1.55
same,Kd,[2],947 nM
L235D/S239D (antibody),Fold,[2],4.11
same,Kd,[2],357 nM
K326E (antibody),Fold,[2],6.09
same,Kd,[2],241 nM
H268D/L328Y/I332E (antibody),Fold,[2],4.89
same,Kd,[2],300 nM
G236S/G237A (antibody),Fold,[2],0.0797
same,Kd,[2],18400 nM
L234E/H268D (antibody),Fold,[2],5.89
same,Kd,[2],249 nM
H268D/L328W/I332E (antibody),Fold,[2],39.8
same,Kd,[2],36.9 nM
S267E/H268D (antibody),Fold,[2],33.3
same,Kd,[2],44 nM
L234W/S239D/L328Y (antibody),Fold,[2],32.8
same,Kd,[2],44.8 nM
P331S (antibody),Fold,[2],0.0372
same,Kd,[2],39400 nM
H268E/L328Y/I332E (antibody),Fold,[2],8.53
same,Kd,[2],172 nM
L328Y/I332E (antibody),Fold,[2],2.08
same,Kd,[2],705 nM
L235F/H268D/L328Y (antibody),Fold,[2],3.97
same,Kd,[2],370 nM
S239D/S267E/I332E (antibody),Fold,[2],124
same,Kd,[2],11.8 nM
S239D/H268D/L328Y/I332E (antibody),Fold,[2],54.1
same,Kd,[2],27.1 nM
L234W/L328Y/I332E (antibody),Fold,[2],6.32
same,Kd,[2],232 nM
G236H (antibody),Fold,[1],0.135
same,Kd,[1],6350 nM
L235F/L328Y/I332E (antibody),Fold,[2],3.31
same,Kd,[2],443 nM
H268D/L328F/I332E (antibody),Fold,[2],12.3
same,Kd,[2],119 nM
S239D/H268D/L328F/I332E (antibody),Fold,[2],53.2
same,Kd,[2],27.6 nM
S239D/H268D (antibody),Fold,[2],14.4
same,Kd,[2],102 nM
